Test results published in patent publication US20250243287A1 (SHENGHE CHINA BIOPHARMACEUTICAL, published 2025).

Tests used:
[1] = biological target: T1, human CCR8 (chemokine (C-C motif) receptor 8) (human, UniProt P51685 1-355); assay: flow cytometry on CCR8-CHO-K1 cells
T1 construct: whole, on cells; also called CCR8-CHO-K1 cells; CHOK1-CCR8 cells
Experimental: (§1) The antibody to be tested was taken as the initial concentration of 50 μg/mL and diluted 5-fold with 6 gradients. The cells CCR8-CHO-K1 in the incubator were taken out, and the cell suspension was transferred to a 15 mL centrifuge tube, centrifuged, and counted by resuspension in PBS. A blank control group (Blank), a negative control group (NC), an experimental group, a positive control group (positive control BMK derived from the 1K17 sequence of US20210277129) and the irrelevant antibody group were kept. The cell suspension was spread in a 96-well plate according to about 3×10⁵ cells/well. Centrifugation (1000 rpm, 5 min) was performed, followed by washing with PBS, re-centrifugation, and repeated twice to remove media residues. The supernatant was discarded, 100 μL of primary antibody solution and irrelevant antibody solution were added to the experimental group and irrelevant antibody group, respectively, and the cells were resuspended and incubated at room temperature for 1 h. The blank group, and the negative control group were incubated with an equal amount of PBS.
(§2) After 1 h, PBS was added to wash twice. […] After the supernatant was discarded, 120 μL of PBS was added to resuspend and sequentially flow cytometry was performed to detect the mean fluorescence intensity. […]

[2] = biological target: T1, human CCR8 (chemokine (C-C motif) …); assay: flow cytometry on CCR8-CHO cells
Experimental: as §1, §2

[3] = biological target: T1, human CCR8 (chemokine (C-C motif) …); assay: flow cytometry on CCR8-CHO-K1 cells, PE anti-human IgG Fc secondary
Experimental: as §1, with “The supernatant was discarded, 100 μL of primary antibody solution and irrelevant antibody solution were added to the experimental group and irrelevant antibody group, respectively, and the cells were resuspended and incubated at room temperature for 1 h. The blank group, and the negative control group were incubated with an equal amount of PBS.” left out
as §2
The binding activity of the chimeric antibodies was detected by FACs method, the secondary antibody was PE F(ab′) 2 sheep anti-human IgG Fc (Biolegend, Cat: 398004), and the assay procedure was the same as Example 6, and the results are shown in FIG. 2.

[4] = biological target: T1, human CCR8 (chemokine (C-C motif) …); assay: flow cytometry on CHOK1-CCR8 cells, steps of Example 6

T1 sequence (P51685 whole entry): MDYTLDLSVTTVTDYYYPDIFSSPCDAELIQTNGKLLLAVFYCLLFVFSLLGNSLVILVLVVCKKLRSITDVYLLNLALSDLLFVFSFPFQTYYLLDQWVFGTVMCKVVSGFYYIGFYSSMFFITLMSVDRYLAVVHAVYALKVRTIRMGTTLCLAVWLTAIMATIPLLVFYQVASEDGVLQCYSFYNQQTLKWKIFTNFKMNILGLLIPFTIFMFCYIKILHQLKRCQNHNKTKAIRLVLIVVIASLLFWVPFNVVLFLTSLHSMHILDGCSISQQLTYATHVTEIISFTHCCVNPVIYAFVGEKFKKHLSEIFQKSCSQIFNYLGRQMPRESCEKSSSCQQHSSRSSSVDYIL

B1: Ms-1 (antibody, V domains shown)
VH: QVQLQQSGAELVRPGASVTLSCKASGYTFTAYEMHWVRQTPVNGLEWIGAIDPKTGVTAYNQKFKDKAIMTADKYSSTAYMDLRSLTSEDSAVYYCTSRAGGRGRFAYWGQGTLVTVSA
VL: DVVMTQTPLSLPVSLGDQASISCRSSQSLVHSSANTYLHWYLQKPGQSPKVLIYKVSNRFSGVPDRFSGSGSGTDFTLKISRVEAEDLGLYFCSQSTHVPFTFGGGTKLEIK
notes: Mouse hybridoma antibody; also called mouse-derived anti-CCR8 antibody Ms-1
B1: binds [1].

B2: Ms-8 (antibody, V domains shown)
VH: EVQLVETGGGLVQPKGSLKLSCAASGFTFNTYAMNWVRQTPEKGLEWVARIRTKSNNYATSYADSVKDRFTISRYDSQNMLYLQMNNLKTEDTAMYYCVRGGYGIRGDYAMDYWGQGTSVTVSS
VL: DIVMTQAAPSVPVTPGESVSISCRSTKSLLHSNGNTYLYWFLQRPGQSPQLLIYRMSNLASGVPDRFSGSGSGTTFTLRISRVEAEDVGVYYCMQHLEYPFTFGSGTKLEIK
notes: Mouse hybridoma antibody; also called mouse-derived anti-CCR8 antibody Ms-8
B2: binds [2].

B3: Ms-15 (antibody, V domains shown)
VH: EVQLVETGGGLVQPKGSLKLSCAASGFTFNTNAMNWVRQAPGKGLEWVGRIRTKSNNYATYYADSVRDRFTISRYDSQGMLYLQMNNLKTEDTAMYYCVRGGYGIRGDYTMDYWGQGTSVTVSS
VL: DIVMTQAAPSVPVTPGESVSISCRSSKSLLHSNGNTYLYWFLQRPGQSPQLLIYRMSNLASGVPDRFSGSGSGTAFTLRISRVEAEDVGVYYCMQHLEYPFTFGSGTKLEIK
notes: Mouse hybridoma antibody; also called mouse-derived anti-CCR8 antibody Ms-15
B3: binds [1].

B4: Ms-2 (antibody, V domains shown)
VH: QVQLQQSGAELARPGASVTLSCKASGYTFTDYEMHWVKQTPVRGLEWIGAIDPETGATAYNQKFKGKATLTADKSSNTAYMELRRLTSEDSAVYYCKSRAGGRGRFAYWGQGTLVTVSA
VL: DVVMTQTPLSLPVRLGDQASISCRSSQSLVHSSGNTYLHWYLQKSGQSPKLLIYKVSNRFSGVPDRFSGSGSGTDFTLKISRVEAEDLGVYFCSQTTHVPYTFGGGTKLEIK
notes: Mouse hybridoma antibody; also called mouse-derived anti-CCR8 antibody Ms-2
B4: binds [2].

B5: chimeric antibody CH-2 (antibody, V domains shown)
VH: QVQLQQSGAELARPGASVTLSCKASGYTFTDYEMHWVKQTPVRGLEWIGAIDPETGATAYNQKFKGKATLTADKSSNTAYMELRRLTSEDSAVYYCKSRAGGRGRFAYWGQGTLVTVSA
VL: DVVMTQTPLSLPVRLGDQASISCRSSQSLVHSSGNTYLHWYLQKSGQSPKLLIYKVSNRFSGVPDRFSGSGSGTDFTLKISRVEAEDLGVYFCSQTTHVPYTFGGGTKLEIK
notes: Variable domains of Ms-2 in a human IgG framework, expressed in CHO cells
B5: binds [3].

B6: Hu-15-Z10 (antibody, V domains shown)
VH: EVQLVESGGGLVQPGGSLRLSCAASGFTFNTNAMNWVRQAPGKGLEWVGRIRTKSNNYATYYAESVRDRFTISRDDSKNSLYLQMNSLKTEDTAMYYCVRGGYGIRADYTMDYWGQGTLVTVSS
VL: DIVMTQSPPTLSLSPGERATLSCRSSKSLLHSNGNTYLYWFQQKPGQSPQLLIYRMSNLASGIPDRFSGSGSGTDFTLTISRLEPEDFAVYYCMQHLEYPFTFGQGTKLEIK
notes: Humanized from CH-15; also called humanized antibody Hu-15-Z10
B6: binds [4].
